Measured values as given in FireProtDB (doi:10.1021/bi961660c).
“And” between values parts separate entries of the source, which are not always exact repeats. Identical values can stand only once.

Settings: Escherichia coli (strain K12), pH 7, 25 °C, GdnHCl, CD, Tris-HCl 20 mM, reversible: yes, whole UniProt chain shown

B1: Tryptophan synthase alpha chain wild type, P0A877 (protein)
chain: MERYESLFAQLKERKEGAFVPFVTLGDPGIEQSLKIIDTLIEAGADALELGIPFSDPLADGPTIQNATLRAFAAGVTPAQCFEMLALIRQKHPTIPIGLLMYANLVFNKGIDEFYAQCEKVGVDSVLVADVPVEESAPFRQAALRHNVAPIFICPPNADDDLLRQIASYGRGYTYLLSRAGVTGAENRAALPLNHLVAKLKEYNAAPPLQGFGISAPDQVKAAIDAGAAGAISGSAIVKIIEQHINEPEKMLAALKVFVQPMKAATRS
unfolding free energy: 8.21 kcal/mol | unfolding free energy (transition: 3): 4.23 kcal/mol and 4 kcal/mol
